The target in assay [1] is Biotinylated human E-cadherin ectodomains (EC1-5), wild type (human). The experiment in a line: single-molecule AFM force spectroscopy.
Assay [2] has as its target Biotinylated human E-cadherin K14E mutant ectodomains (human). The experiment in a line: single-molecule AFM force spectroscopy.

In assay [1], “Biotinylated human E-cadherin ectodomains (EC1-5), wild type (domain or fragment)” registered a peak unbinding force of 48.3 pN; an unbinding force, lower peak (un-strengthened, with 40 nM 66E8) of 45.2 pN; an unbinding force, second peak (strengthened, with 40 nM 66E8) of 63.3 pN.

In assay [2], “Biotinylated human E-cadherin K14E mutant ectodomains (domain or fragment)” had an average unbinding force of 42.8 pN; an unbinding force, lower peak (un-strengthened, with 40 nM 66E8 Fab) of 39.4 pN; an unbinding force, second peak (strengthened, with 40 nM 66E8 Fab) of 62.3 pN.

Source of the values: paper PMC10872345.
